How the values were obtained:
Assay in all cases: bead flow cytometry, AUC minus CD4
[1] = target: SARS-CoV-2 spike receptor binding domain (RBD), recombinant (SARS-CoV-2, UniProt P0DTC2 319-541)
[2] = target: SARS-CoV-2 spike N-terminal domain (NTD), recombinant (SARS-CoV-2, UniProt P0DTC2 14-305)
[3] = target: T1, HCoV-NL63 spike protein (Sino Biological 40604-V08B) (HCoV-NL63, UniProt Q6Q1S2 19-1296)
T1 sequence: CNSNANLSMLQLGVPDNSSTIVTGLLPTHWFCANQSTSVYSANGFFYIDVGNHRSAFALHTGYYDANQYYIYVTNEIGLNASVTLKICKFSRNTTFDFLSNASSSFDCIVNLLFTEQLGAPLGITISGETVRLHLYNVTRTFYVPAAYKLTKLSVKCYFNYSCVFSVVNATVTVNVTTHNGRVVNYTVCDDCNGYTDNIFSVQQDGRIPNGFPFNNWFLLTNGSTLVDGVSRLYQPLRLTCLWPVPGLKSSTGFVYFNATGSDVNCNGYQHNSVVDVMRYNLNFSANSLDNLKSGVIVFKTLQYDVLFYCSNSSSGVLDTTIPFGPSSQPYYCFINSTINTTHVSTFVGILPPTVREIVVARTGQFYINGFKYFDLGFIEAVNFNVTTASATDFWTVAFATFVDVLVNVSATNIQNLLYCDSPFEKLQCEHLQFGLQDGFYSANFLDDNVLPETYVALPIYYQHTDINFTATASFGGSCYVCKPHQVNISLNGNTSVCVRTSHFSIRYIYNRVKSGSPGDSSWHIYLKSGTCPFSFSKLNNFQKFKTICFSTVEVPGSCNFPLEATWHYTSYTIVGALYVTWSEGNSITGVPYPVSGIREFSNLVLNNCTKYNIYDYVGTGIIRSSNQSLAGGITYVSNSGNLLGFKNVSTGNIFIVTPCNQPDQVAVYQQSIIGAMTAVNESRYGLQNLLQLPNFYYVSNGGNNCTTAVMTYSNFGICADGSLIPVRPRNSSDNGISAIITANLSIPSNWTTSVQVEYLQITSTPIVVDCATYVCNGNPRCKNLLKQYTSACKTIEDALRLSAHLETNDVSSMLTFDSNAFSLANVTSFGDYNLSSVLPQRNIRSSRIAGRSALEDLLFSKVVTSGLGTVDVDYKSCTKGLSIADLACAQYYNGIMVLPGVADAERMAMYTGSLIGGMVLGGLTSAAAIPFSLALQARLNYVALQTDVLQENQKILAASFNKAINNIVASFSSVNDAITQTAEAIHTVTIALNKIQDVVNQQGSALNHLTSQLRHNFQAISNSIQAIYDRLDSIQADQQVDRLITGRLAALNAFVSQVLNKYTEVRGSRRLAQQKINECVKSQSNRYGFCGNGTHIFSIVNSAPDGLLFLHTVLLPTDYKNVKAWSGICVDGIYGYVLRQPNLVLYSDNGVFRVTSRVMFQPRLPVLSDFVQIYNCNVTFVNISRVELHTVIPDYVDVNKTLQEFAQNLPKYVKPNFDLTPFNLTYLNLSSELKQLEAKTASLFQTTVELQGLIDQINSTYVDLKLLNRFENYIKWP

[4] = target: T2, HCoV-229E spike protein (Sino Biological 40605-V08B) (HCoV-229E, UniProt P15423 16-1115)
T2 sequence: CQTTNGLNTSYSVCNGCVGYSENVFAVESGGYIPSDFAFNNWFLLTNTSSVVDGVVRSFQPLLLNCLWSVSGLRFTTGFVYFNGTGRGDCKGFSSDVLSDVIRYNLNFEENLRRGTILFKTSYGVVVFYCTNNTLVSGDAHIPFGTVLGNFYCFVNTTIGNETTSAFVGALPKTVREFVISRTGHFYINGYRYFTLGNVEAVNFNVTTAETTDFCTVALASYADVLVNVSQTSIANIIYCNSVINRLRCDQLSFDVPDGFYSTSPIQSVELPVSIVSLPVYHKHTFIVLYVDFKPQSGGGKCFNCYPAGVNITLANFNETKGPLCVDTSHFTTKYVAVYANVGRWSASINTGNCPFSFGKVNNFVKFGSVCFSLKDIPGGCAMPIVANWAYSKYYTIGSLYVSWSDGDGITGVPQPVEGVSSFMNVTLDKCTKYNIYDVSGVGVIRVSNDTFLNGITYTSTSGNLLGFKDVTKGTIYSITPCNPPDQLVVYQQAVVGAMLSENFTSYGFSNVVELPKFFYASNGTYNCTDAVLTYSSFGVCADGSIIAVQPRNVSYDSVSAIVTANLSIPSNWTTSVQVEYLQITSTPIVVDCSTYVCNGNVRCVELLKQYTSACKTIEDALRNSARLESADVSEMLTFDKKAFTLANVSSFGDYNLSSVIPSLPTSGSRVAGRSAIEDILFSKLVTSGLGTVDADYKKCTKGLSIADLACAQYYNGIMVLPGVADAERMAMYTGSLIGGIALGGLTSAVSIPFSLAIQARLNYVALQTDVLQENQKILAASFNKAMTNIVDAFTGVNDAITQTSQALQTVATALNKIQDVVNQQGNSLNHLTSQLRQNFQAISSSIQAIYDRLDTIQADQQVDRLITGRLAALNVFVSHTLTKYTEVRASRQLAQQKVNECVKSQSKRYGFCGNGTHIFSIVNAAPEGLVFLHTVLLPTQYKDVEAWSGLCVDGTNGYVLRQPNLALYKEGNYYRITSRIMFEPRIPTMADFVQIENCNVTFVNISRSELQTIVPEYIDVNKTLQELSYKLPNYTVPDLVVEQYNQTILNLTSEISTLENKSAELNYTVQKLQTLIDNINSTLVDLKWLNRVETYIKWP

Measured: binding result

B1: COV93-17 (antibody, V domains shown)
VH: EVQLVQSGAEVKKPGESLRISCRGSGYSFTNYWISWVRQMPGKGLEWMGRIDPTDSYTNYSPSFQGHVTISTDKSISTAYLQWSSLKASDTAMYYCARHKNGMIHEYDYWGQGILVTVSS
VL: DIQLTQSPSTLSASVGDRVTITCRASQSIRSWLAWYQQKPGKAPKLLIYRASSLESGVPSRFSGSGSGTEFTLTISSLQPDDFATYYCQQYGTFGPGTKVDIR
no binding (tested: 200 µg/mL): all assays above

B2: COV44-54 (antibody, V domains shown)
VH: QVQLVQSGAEVKKPGASVRVSCKTSGYTFTNYYMTWVRQAPGQGLQWVGLISPSAGYTAYAQMFQGRVTMTSDTSTSTVYMQLSSLRSEDTAIYYCTRVAVAGPNDYWGQGTLVTVSS
VL: EIVLTQSPGTLSLSPGERATLSCRASQSISGSYLAWYQQKPGQAPRLVIYAASSRATGIPDRFSGSGSGTDFILTISRLEAEDFAVYFCQHYRSSPPLWTFGQGTKVEIR
no binding (tested: 200 µg/mL): all assays above

B3: COV49-03 (antibody, V domains shown)
VH: DVQLLESGGGLVQPGGSRRLSCAASGFTFSNYAMSWVRQAPGKGLEWVSAISGGGATTYYADSVQGRFTMSRDNSNNTLYLQMSSLRAEDTAVYYCTKGAFYDILSSIIVEGDYWGQGTLVTVSS
VL: DVVLTQSPLSLPITLGQPASISCRSSQSLVFSDGNTYLNWFQQRPGQSPRRLIYKVSNRDSGVPDRFSGSGSGTDFTLKISRVEAEDVGVYYCMQGTHWLSITFGQGTRLEIK
no binding (tested: 200 µg/mL): all assays above

B4: COV49-05 (antibody, V domains shown)
VH: EVQLLESGGGLAQPGGSLRLSCVASGFSFNDYAMTWVRQAPGKGLEWVSAVSSGGQTTYSTDSVKGRFTISRDNSKNMLYLQMNSLRAEDTAVYYCVKGAFYNILSSIIVEGDYWGQGTLVTVSS
VL: GVVLTQSPLSLPVTLGQPASISCRSSQSLVFSDGNTYLNWFQQRPGQSPRRLIYQVSNRDPGVPDRFSGSGSGTDFTLKISRVEAEDVGVYYCMQGTHWLSITFGQGTRLEIK
no binding (tested: 200 µg/mL): all assays above

B5: COV49-04 (antibody, V domains shown)
VH: EVQLLESGGGLVQPGGSLRLSCATSGFTFSSYAMTWVRQAPGKGLEWVSAISGGGATTYSTDSVKGRFTTSRDNSKNTLYLQMNNLRAEDTALYYCAKGAFYNILSSIIVEGDYWGQGTLVTVSS
VL: DVVMTQSPLSLSVTLGQPASISCRSSQSLVFSDGDTYLNWFQQRPGQSPRRLIYRVSNRDSGVPDRFSGSGSGTDFTLKISRVEAEDVGVYYCMQGTHWLSITFGQGTRLDIK
no binding (tested: 200 µg/mL): all assays above

B6: COV49-23 (antibody, V domains shown)
VH: EVQLLESGGGLAQPGGSLRISCVASGFSFNDYAMAWVRRAPGKGLEWVSAVSGGGQTTYSTDSVKGRFTTSRDNSKNTLYLQMNGLRAEDTAVYYCVKGAFYNILSSIIVEGDYWGQGALVTVSS
VL: GVVLTQSPLSLPVTLGQPASISCRSSQSLVFSDGNTYLNWFQQRPGQSPRRLIYQVSNRDPGVPDRFSGSGSGTDFTLKISRVEAEDVGVYYCMQGTHWLSITFGQGTRLEIK
no binding (tested: 200 µg/mL): all assays above

B7: COV49-51 (antibody, V domains shown)
VH: QVQLVQSGAEAKKPGASVKVSCKASGYSFTSYHMHWVRQAPGQGLEWMGIINPNGGTTTYAPKFQGRVTMTSDTSTSTVYMELTSLRSEDTAVYYCSTVVGALWGQGTLVIVSS
VL: IVLTQSPGTLSLSPGERATLSCRASQSVRSNNYLAWYQQKPGQAPRLLIYGASTRATGIPDRFSGSGSGTDFTLTISRLEPEDFAVYYCQQYGSSPLTFGGGTRVEIK
no binding (tested: 200 µg/mL): all assays above

B8: COV93-03 (antibody, V domains shown)
VH: QLQLVQSGAEVKKPGASVKLSCKASGNTFTSHYIHWVRQAPGQGPEWMGIINPSGSGTRYAQKFQGRVTMTRDTSTSTVYMELVSLRFEDTAVYYCAGDYYLDYWGQGTLVTVSS
VL: EFVLTQSPGTLSLSPGERATLSCRASQSVTSNYLAWYQQKPGQAPRLLIFGASSRATGIPDRFSGSGSGTDFTLTISRLEPEDFAVYYCQQYGSSPPMYTFGPGTKVEIK
no binding (tested: 200 µg/mL): all assays above

B9: COV44-56 (antibody, V domains shown)
VH: QVLLVQSGAEVKKPGASVMVSCKASGYILNNYYMHWVRQAPGHGLEWMGIINPSGDGTRYAQKFQGRVTMTRDSSTTSIHMELRRVTSEDTAVYYCARGGSQSAFDMWGQGTVVLVSS
VL: DIVMTQSPRSLPVTPGESASISCRSSQSLLQKNGYNYLDWYVQKPGQSPQLLIYLGSYRASGVPDRISGSGSGTDFTLKINRVEAEDVGVYYCLQAQQAPPLYTFGQGTKLQIE
no binding (tested: 200 µg/mL): all assays above
